Patent publication US20120129766A1 (IRM, published 2012)
Positions count from the first letter of the chain named. In names and notes the source's numbering stands.

T1: human β-klotho (human, UniProt Q86Z14 1-1044)
T1 sequence (looked up): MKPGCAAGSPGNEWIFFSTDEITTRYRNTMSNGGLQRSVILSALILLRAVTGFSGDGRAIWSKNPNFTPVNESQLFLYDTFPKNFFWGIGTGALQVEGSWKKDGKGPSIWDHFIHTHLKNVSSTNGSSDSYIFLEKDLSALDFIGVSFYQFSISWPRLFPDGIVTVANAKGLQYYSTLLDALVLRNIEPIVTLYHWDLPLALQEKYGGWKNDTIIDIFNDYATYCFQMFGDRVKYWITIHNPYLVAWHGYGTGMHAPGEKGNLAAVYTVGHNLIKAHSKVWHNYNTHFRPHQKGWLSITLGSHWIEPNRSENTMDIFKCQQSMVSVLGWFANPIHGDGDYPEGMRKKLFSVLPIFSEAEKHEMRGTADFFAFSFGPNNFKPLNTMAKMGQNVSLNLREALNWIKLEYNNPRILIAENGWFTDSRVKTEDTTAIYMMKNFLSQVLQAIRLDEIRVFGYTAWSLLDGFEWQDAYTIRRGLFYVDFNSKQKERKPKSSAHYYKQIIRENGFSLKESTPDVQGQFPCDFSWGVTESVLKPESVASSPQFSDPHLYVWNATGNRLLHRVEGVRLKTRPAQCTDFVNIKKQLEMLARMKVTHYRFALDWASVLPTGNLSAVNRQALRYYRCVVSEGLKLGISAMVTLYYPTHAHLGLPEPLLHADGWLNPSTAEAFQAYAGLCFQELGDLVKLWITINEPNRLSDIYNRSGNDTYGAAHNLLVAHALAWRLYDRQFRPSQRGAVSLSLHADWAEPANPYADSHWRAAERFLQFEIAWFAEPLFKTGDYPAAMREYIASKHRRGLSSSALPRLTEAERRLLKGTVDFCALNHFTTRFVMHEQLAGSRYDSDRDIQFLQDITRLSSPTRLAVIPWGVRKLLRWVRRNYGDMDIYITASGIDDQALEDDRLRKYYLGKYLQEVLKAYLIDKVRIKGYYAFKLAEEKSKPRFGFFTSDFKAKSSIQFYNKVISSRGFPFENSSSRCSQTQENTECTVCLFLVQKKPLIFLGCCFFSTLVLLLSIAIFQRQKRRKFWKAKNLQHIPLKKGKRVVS

B1: hFGF21(33-209)-V5 (ligand)
chain: DSSPLLQFGGQVRQRYLYTDDDQQTEAHLEIREDGTVGGAAHQSPESLLQLKALKPGVIQILGVKASRFLCQKPDGALYGSLHFDPEACSFRELLLENGYNVYQSEAHGLPLHLPGNRSPHRDPASQGPARFLPLPGLPPALPEPPGILAPQPPDVGSSDPLAMVGPSQARSPSYAS
B2: hFGF21(33-209)-V14-R154C, L174P (ligand)
chain: B1 chain with D22A, Q24E, Q50E, A66T, R122C, S126P, L142P, A170G
B3: hFGF21(33-209)-V63 (ligand)
chain: B1 chain with D22A, Q23C, A66T, K73R, A107T, G116C, Q127R, L142P
B4: hFGF21(33-209)-V14pool 1-N-40 kDa bPEG-AL (ligand)
chain: B1 chain with D22A, Q24E, Q50E, A66T, S126P, A170G
modifications: 40 kDa branched PEG (aldehyde reagent) on the N-terminal amine
B5: hFGF21(33-209)-V14-pool2 (ligand)
chain: B1 chain with D22A, Q24E, Q50E, A66T, N98D, S126P, A170G
B6: hFGF21(33-209)-V7 (ligand)
chain: B1 chain with D22A, Q24E
B7: hFGF21(33-209)-V58 (ligand)
chain: B1 chain with D22A, A66T, K73R, A77T, A107T, L142P
B8: hFGF21(33-209)-V14-L174P, R154C-40 kDa bPEG-MA (ligand)
chain: B1 chain with D22A, Q24E, Q50E, A66T, R122C, S126P, L142P, A170G
modifications: 40 kDa branched maleimido-PEG on Cys 154 (numbered on SEQ ID NO:1)
B9: hFGF21(33-209)-V14-pool1 (ligand)
chain: B1 chain with D22A, Q24E, Q50E, A66T, S126P, A170G
B10: hFGF21(33-209)-V52 (ligand)
chain: B1 chain with L6V, D22A, A66T, G109S, R118K, A163S
B11: hFGF21(33-209)-V61 (ligand)
chain: B1 chain with D22A, Q23C, V37A, Q50E, A66T, K73R, G116C, Q127R, L142P, A170G
B12: hFGF21(33-209)-V16 (ligand)
chain: B1 chain with D22A, Q24E, S126P, A170G
B13: hFGF21(33-209)-V11 (ligand)
chain: B1 chain with Q50E, A66T, S126P, A170G
B14: hFGF21(33-209)-V53 (ligand)
chain: B1 chain with D22A, Q24E, Q50E, A66T, L142P, A170G
B15: hFGF21(33-209)-V57 (ligand)
chain: B1 chain with D22A, K73R, A107T, L142P
B16: hFGF21(33-209)-V60 (ligand)
chain: B1 chain with D22A, Q23C, Q50E, A66T, K73R, A77T, G116C, Q127R, L142P, A170G
B17: hFGF21(33-209)-V10 (ligand)
chain: B1 chain with D22A, Q24E, A107T, R118K
B18: hFGF21(33-209)-V13 (ligand)
chain: B1 chain with S126P, A170G
B19: hFGF21(33-209)-V64 (ligand)
chain: B1 chain with D22A, Q23C, H42D, A66T, K73R, A77T, A107T, G116C, Q127R, L142P
B20: hFGF21(33-209)-V54 (ligand)
chain: B1 chain with D22A, Q50E, A66T, A77T, L142P, A170G
B21: hFGF21(33-209)-V18 (ligand)
chain: B1 chain with D22A, A27S, K65Q, A66T, S126P, A170G
B22: hFGF21(33-209)-V55 (ligand)
chain: B1 chain with D22A, V37A, Q50E, A66T, L142P, A170G
B23: hFGF21(33-209)-V56 (ligand)
chain: B1 chain with D22A, A107T, R118K, L142P
B24: hFGF21(33-209)-V8 (ligand)
chain: B1 chain with D22A, Q24E, K65Q, A66T, A107T, R118K
B25: hFGF21(33-209)-V15 (ligand)
chain: B1 chain with D22A, Q24E, K65Q, A66T, S126P, A170G
B26: hFGF21(33-209)-V62 (ligand)
chain: B1 chain with D22A, Q23C, A66T, K73R, A107T, G116C, R118K, L142P
B27: hFGF21(33-209)-V12 (ligand)
chain: B1 chain with K65Q, A66T, S126P, A170G
B28: hFGF21(33-209)-V59 (ligand)
chain: B1 chain with D22A, Q23C, Q50E, A66T, K73R, G116C, L142P, A170G

These binders were tested against T1, human β-klotho (assay: cell-based or functional assay).

| EC50 (nM), pERK In Cell Western | Fold-WT (EC50 of variant / EC50 of FGF21-WT) | Binder |
| --- | --- | --- |
| 26 nM | 9.3 fold | B1 |
| 6.7 nM | 1 fold | B2 |
| 13 nM | 3.7 fold | B3 |
| 107 nM | 22 fold | B4 |
| 5.3 nM | 1.4 fold | B5 |
| 19 nM | 6.8 fold | B6 |
| 3.6 nM | 2.6 fold | B7 |
| 21 nM | 3.3 fold | B8 |
| 6.7 nM | 1.4 fold | B9 |
| 66 nM | 94 fold | B10 |
| 22 nM | 6.3 fold | B11 |
| 11 nM | 6.5 fold | B12 |
| 28 nM | 18 fold | B13 |
| 4.2 nM | 1.3 fold | B14 |
| 22 nM | 5.4 fold | B15 |
| 7.6 nM | 2.2 fold | B16 |
| 18 nM | 3.3 fold | B17 |
| 11 nM | 4 fold | B18 |
| 2.9 nM | 0.8 fold | B19 |
| 25 nM | 9.2 fold | B20 |
| 15 nM | 2.7 fold | B21 |
| 34 nM | 13 fold | B22 |
| 37 nM | 14 fold | B23 |
| 14 nM | 5 fold | B24 |
| 3.3 nM | 1.2 fold | B25 |
| 24 nM | 6.8 fold | B26 |
| 14 nM | 5 fold | B27 |
| 6.5 nM | 1.6 fold | B28 |
